Consider 1 molecule from paper PMC11415702.

The series addresses Complement factor H (CFH) (human, UniProt P08603 19-1231). As to the kind of experiment: interdigitated electrode current-volt sandwich assay.

Sequence of Complement factor H (CFH) (P08603 19-1231): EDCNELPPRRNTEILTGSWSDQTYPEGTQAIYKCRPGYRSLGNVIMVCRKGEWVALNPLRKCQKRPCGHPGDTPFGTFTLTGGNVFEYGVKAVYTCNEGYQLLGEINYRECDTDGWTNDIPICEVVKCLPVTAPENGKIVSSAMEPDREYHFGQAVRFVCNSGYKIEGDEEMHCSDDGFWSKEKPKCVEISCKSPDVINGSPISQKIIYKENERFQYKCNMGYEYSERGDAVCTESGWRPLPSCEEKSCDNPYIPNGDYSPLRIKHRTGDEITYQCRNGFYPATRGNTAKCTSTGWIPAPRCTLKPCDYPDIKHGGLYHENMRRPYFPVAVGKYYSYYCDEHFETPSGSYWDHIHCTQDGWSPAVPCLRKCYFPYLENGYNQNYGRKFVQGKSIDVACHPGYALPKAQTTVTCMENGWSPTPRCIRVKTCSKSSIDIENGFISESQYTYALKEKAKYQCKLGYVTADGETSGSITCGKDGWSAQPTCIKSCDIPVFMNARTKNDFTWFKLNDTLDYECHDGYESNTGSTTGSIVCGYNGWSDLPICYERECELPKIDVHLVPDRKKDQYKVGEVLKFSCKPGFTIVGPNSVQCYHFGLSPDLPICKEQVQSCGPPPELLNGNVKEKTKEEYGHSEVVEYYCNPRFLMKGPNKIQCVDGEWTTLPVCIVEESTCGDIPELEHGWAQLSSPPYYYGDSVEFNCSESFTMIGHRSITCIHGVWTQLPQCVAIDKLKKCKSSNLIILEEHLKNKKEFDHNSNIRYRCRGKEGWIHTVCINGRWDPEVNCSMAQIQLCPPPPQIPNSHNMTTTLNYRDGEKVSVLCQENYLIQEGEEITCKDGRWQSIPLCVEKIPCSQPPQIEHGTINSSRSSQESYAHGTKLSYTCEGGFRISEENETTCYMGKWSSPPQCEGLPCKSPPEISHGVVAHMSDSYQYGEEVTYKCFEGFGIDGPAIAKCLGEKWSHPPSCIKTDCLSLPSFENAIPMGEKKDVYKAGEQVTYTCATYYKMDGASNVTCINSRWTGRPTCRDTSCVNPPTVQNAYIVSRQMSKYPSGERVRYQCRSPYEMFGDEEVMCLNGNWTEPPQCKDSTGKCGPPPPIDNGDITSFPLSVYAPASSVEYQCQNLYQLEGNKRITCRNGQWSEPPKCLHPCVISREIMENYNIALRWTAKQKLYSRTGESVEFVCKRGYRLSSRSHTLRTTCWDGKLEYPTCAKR

As for GCGGAGCGTGGCAGG (ssDNA, biotin (end not stated)) [anti-tau DNA aptamer], the binding result was “no binding”.
